Test results taken from publication PMC5120866 (Cancer research, 2016).

Target: Integrin β3 (human (endogenous in ovarian cancer …, UniProt P05106 27-788))
Assay: co-IP

Chain of Integrin β3 (human (P05106 27-788): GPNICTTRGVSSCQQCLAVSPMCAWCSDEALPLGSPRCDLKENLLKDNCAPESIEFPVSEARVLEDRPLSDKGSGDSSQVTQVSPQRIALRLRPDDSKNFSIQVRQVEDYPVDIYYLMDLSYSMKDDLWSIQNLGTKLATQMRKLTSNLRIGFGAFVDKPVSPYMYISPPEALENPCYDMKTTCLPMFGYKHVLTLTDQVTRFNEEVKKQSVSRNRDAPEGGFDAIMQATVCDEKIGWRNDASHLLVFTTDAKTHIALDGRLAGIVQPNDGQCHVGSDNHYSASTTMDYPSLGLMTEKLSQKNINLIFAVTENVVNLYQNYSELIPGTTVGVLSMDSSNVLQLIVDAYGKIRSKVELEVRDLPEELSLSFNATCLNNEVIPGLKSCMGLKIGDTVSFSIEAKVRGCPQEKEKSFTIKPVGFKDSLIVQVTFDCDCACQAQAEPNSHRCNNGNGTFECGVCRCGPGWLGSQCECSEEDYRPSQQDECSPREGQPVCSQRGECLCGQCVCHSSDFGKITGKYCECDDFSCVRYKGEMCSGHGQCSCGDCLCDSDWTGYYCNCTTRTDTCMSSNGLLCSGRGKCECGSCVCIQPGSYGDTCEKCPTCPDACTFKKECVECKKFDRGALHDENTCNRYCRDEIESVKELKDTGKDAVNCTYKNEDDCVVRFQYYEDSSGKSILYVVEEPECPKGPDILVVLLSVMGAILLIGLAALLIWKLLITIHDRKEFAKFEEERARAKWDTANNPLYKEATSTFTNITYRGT

fold co-immunoprecipitation against EGFL6^RGE: 4.6 fold
B1: EGFL6 (wild-type, FLAG-EGFL6) (ligand, human, UniProt Q8IUX8-1 22-553, looked up)
chain: NAASARHHGLLASARQPGVCHYGTKLACCYGWRRNSKGVCEATCEPGCKFGECVGPNKCRCFPGYTGKTCSQDVNECGMKPRPCQHRCVNTHGSYKCFCLSGHMLMPDATCVNSRTCAMINCQYSCEDTEEGPQCLCPSSGLRLAPNGRDCLDIDECASGKVICPYNRRCVNTFGSYYCKCHIGFELQYISGRYDCIDINECTMDSHTCSHHANCFNTQGSFKCKCKQGYKGNGLRCSAIPENSVKEVLRAPGTIKDRIKKLLAHKNSMKKKAKIKNVTPEPTRTPTPKVNLQPFNYEEIVSRGGNSHGGKKGNEEKMKEGLEDEKREEKALKNDIEERSLRGDVFFPKVNEAGEFGLILVQRKALTSKLEHKDLNISVDCSFNHGICDWKQDREDDFDWNPADRDNAIGFYMAVPALAGHKKDIGRLKLLLPDLQPQSNFCLLFDYRLAGDKVGKLRVFVKNSNNALAWEKTTSEDEKWKTGKIQLYQGTDATKSIIFEAERGKGKTGEIAVDGVLLVSGLCPDSLLSVDD
